Laboratory results reported in patent US20140093526A1 (RESEARCH FOUNDATION FOR MICROBIAL DISEASES OF OSAKA …, published 2014).

T1: HHV-6B gQ1 carboxy-terminal deletion mutant, position 1 to position 451 (human herpesvirus 6B (HHV-6B), UniProt Q9QJ11 25-451)
T1 construct: Expressed in 293T cells together with gQ2; also called gQ1 1-451
T1 chain: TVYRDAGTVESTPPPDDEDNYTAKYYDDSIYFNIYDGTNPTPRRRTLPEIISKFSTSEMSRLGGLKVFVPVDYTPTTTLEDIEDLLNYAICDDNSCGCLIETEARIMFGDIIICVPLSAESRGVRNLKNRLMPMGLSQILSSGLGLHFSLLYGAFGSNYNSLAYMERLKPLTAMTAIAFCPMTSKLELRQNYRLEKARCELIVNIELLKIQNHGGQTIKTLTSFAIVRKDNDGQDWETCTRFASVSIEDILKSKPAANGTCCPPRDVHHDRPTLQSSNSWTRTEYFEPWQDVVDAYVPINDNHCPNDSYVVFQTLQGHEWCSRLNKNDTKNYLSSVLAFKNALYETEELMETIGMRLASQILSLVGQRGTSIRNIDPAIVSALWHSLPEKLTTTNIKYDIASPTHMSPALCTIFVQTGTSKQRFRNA

T2: HHV-6B gQ1 carboxy-terminal deletion mutant, position 1 to position 483 (human herpesvirus 6B (HHV-6B), UniProt Q9QJ11 25-483)
T2 construct: Expressed in 293T cells together with gQ2; also called gQ1 1-483
T2 chain: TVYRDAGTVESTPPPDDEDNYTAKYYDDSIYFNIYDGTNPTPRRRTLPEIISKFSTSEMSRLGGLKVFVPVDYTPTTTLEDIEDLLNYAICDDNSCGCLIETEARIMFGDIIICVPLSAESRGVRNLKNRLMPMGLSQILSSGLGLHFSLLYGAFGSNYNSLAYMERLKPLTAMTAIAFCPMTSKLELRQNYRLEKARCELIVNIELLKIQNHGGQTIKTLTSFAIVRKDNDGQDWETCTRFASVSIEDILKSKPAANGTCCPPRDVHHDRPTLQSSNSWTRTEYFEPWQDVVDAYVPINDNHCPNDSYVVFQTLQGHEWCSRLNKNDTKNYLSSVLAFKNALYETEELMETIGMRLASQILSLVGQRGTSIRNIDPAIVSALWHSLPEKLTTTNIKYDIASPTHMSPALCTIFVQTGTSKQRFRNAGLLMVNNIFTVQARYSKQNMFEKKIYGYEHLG

T3: HHV-6B gQ1 carboxy-terminal deletion mutant, position 1 to position 466 (human herpesvirus 6B (HHV-6B), UniProt Q9QJ11 25-466)
T3 construct: Expressed in 293T cells together with gQ2; also called gQ1 1-466
T3 chain: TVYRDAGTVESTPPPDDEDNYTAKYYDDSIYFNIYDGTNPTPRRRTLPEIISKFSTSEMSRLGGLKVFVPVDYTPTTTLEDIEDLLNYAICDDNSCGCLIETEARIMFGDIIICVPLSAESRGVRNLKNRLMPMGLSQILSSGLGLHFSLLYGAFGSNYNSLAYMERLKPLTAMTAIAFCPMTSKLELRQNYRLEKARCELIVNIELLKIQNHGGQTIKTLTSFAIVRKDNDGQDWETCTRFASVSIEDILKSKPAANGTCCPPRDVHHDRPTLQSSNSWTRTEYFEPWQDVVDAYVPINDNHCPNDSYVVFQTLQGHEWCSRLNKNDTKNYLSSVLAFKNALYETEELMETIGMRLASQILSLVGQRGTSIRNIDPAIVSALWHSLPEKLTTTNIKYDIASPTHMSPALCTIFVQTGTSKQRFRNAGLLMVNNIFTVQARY


How the values were obtained:
[1] = molecular target: T1, HHV-6B gQ1 carboxy-terminal deletion …; experiment: IFA on 293T cells co-transfected with the gQ1 mutant and gQ2
[2] = molecular target: T2, HHV-6B gQ1 carboxy-terminal deletion …; experiment: as above
[3] = molecular target: T3, HHV-6B gQ1 carboxy-terminal deletion …; experiment: as above
[4] = molecular target: T4, HHV-6B gQ1 point mutant C487W E488Q (human herpesvirus 6B (HHV-6B), UniProt Q9QJ11 25-486); experiment: IFA with KH-1 on 293T cells expressing the point mutant
T4 construct: Expressed in 293T cells; W is used here

[5] = molecular target: T5, HHV-6B gQ1 point mutant E488Q G489V (human herpesvirus 6B (HHV-6B), UniProt Q9QJ11 25-487); experiment: as above
T5 construct: Expressed in 293T cells

[6] = molecular target: T6, HHV-6B glycoprotein Q1 (gQ1), full length, wild type (human herpesvirus 6B (HHV-6B), UniProt Q9QJ11 25-488); experiment: co-expression in cells
T6 construct: Viral envelope glycoprotein; Tested in lysates of HHV-6B (HST strain)-infected cells (immunoprecipitation) and expressed from plasmid in 293T cells (IFA), alone or with gQ2; also called HHV-6B gQ1; BgQ1

Binder | binding result [1] | binding result [2] | binding result [3] | binding result [4] | binding result [5] | binding result [6]
monoclonal antibody KH-1 (anti-HHV-6B gQ1 neutralizing antibody) (antibody, V domains shown, Mouse (BALB/c) hybridoma antibody; also called MAb KH-1; anti-gQ1 monoclonal antibody KH-1) VH: EVQLQQSGPELEKPGASVKISCKASGYSFTGYNMNWVKQSNGKRLEWIGNIDPYYGGASYNQKFKGKATLTVDKSSTTAYMQLQSLTSEDSAVYYCARGGYGRYFDVWGAGTAVTVSS VL: QIVLTQSPAIMSASPGEKVTMTCSASSSISYMHWYQQKPGTSPKRWIYDTSKLASGVPARFSGSGSGTSYSLTISNMESEDAATYYCHQRSRYHTFGGGTRLEIKR | no binding | no binding | no binding | no binding | no binding | 
HHV-6B glycoprotein Q2 (gQ2) (other, Co-expressed with gQ1 from plasmid in cells (293T); also called HHV-6B gQ2; BgQ2) LPFFSTLPKITSCCDHYVVLNSLSSVSSSTPTCLDGEILFQNAGQKFCRPFTDNRTIVYTMQDQVQRPWSVTWMDFNLVISDYGRAVIENLTESAMSAHKNGPRYLQMETFISDLFRYECHRDNRYVLEKKLQMFYPTTHMNELLFYPSDPTLPSPYGNGHY |  |  |  |  |  | binds
